According to PMC6987127 (Nature Communications, 2020):

What was measured:
[1] = biological target: T1, TrkH-TrkA complex (TrkHA) (Vibrio parahaemolyticus, UniProt Q87KD2); test: single-channel patch clamp, inside-out patches of E. coli giant spheroplasts; format: biochemical; conditions: 150 mM KCl, 10 mM HEPES pH 7.4, same wild-type value also cited to earlier work
T1 construct: gene VP3045; full-length TrkH with C-terminal TEV site and His10; full-length TrkA with N-terminal GST cut by TEV; each made in E. coli BL21(DE3) and mixed; for patch clamp both co-expressed from modified pET vectors in E. coli giant spheroplasts; TrkH dimer with TrkA tetramer; with Trk system potassium uptake protein TrkH
T1 sequence (Q87KD2 1-458): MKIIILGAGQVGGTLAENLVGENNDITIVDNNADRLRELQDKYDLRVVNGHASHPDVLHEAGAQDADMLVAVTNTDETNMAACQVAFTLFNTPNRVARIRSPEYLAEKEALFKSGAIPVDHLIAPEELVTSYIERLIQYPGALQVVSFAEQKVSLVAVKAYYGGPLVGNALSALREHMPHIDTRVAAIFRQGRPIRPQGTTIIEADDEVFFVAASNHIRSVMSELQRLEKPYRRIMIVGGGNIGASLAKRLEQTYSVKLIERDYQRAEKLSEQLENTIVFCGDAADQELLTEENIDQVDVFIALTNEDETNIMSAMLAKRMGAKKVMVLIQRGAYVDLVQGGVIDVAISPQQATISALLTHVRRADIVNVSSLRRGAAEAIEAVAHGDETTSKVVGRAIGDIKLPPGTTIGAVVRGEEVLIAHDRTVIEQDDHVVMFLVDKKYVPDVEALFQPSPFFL
T1 sequence (Q87TN7 1-485 partner): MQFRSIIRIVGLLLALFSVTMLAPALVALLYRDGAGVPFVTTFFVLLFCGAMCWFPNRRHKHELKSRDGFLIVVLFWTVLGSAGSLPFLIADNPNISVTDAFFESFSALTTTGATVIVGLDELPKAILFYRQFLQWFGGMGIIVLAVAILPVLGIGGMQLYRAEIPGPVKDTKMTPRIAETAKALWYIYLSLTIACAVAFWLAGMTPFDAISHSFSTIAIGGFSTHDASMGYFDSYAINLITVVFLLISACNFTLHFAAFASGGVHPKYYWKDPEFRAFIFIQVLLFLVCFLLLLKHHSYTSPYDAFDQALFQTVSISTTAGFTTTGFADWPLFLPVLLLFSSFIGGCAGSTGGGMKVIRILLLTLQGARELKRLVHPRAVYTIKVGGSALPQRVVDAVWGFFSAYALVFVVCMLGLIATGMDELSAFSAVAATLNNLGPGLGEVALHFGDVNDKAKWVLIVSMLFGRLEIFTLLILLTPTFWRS

[2] = biological target: T1, TrkH-TrkA complex (TrkHA); test: X-ray crystallography, […] A; format: binding; conditions: 10 mM ADP; pH 7.2; 20 °C; site: N2 domain of TrkA only
[3] = biological target: TrkA from Vibrio parahaemolyticus, wild type (Vibrio parahaemolyticus); test: crystal structure; TrkH-TrkA complex crystallised in the presence of 10 mM ADP (TrkHA-ADP), 3.53 Å; 20 °C, magnesium acetate 100 mM, HEPES pH 7.2, PEG400 26%, 2-propanol 10%
[4] = biological target: TrkH from Vibrio parahaemolyticus, wild type (Vibrio parahaemolyticus) (UniProt Q87TN7)
[5] = biological target: TrkA from Vibrio parahaemolyticus, wild type (Vibrio parahaemolyticus); test: crystal structure; TrkH-TrkA complex crystallised in the presence of 10 mM ATPγS (TrkHA-ATPγS), 3.85 Å; 20 °C, MgCl2 50 mM, NH4H2PO4 50 mM, HEPES pH 7.3, PEG400 20%
[6] = biological target: TrkA from Vibrio parahaemolyticus, wild type (Vibrio parahaemolyticus); test: cryo-EM structure; TrkH-TrkA complex frozen on grids in the presence of 10 mM ATP (TrkHA-ATP), overall 3.0 Å; 150 mM KCl, 20 mM HEPES pH 7.5, 5 mM β-mercaptoethanol, 3.5 mM DM
[7] = biological target: T1, TrkH-TrkA complex (TrkHA); test: X-ray crystallography, […] A; format: binding; conditions: 10 mM ATPγS; MgCl2 50 mM; pH 7.3; 20 °C; sites: N1 and N2 domains of TrkA
[8] = biological target: the molecule itself; test: crystal structure; TrkH-TrkA complex crystallised in the presence of 10 mM ADP (TrkHA-ADP), 3.53 Å; 20 °C, magnesium acetate 100 mM, HEPES pH 7.2, PEG400 26%, 2-propanol 10%

## Nc1ncnc2c1ncn2[C@@H]1O[C@H](COP(=O)(O)OP(=O)(O)OP(=O)(O)O)[C@@H](O)[C@H]1O [ATP]
[1]; 5 mM ATP, activator
  Popen at 5 mM: 0.87 ± 0.003

## Nc1ncnc2c1ncn2[C@@H]1O[C@H](COP(=O)(O)OP(=O)(O)O)[C@@H](O)[C@H]1O [ADP]
[1]; 5 mM ADP, closes channel
  Popen at 5 mM: 0.02 ± 0.002
[2]
  X-ray crystallography, 3.53 A: each TrkA has a prominent non-protein density in the N2 domain in which we modeled

## TrkA from Vibrio parahaemolyticus, wild type (natural protein)
[3]
  stoichiometry N: 4
[4]
  single-channel open probability (Popen) of TrkHA wt, inside-out patches of E. coli spheroplasts, in ADP: 0.02
  single-channel open probability (Popen) of TrkHA wt, inside-out patches of E. coli spheroplasts, in ATP: 0.87
  single-channel open probability (Popen) of TrkHA wt, inside-out patches of E. coli spheroplasts, no ligand: 0.17
[5]
  stoichiometry N: 4
[6]
  stoichiometry N: 2

## Nc1ncnc2c1ncn2[C@@H]1O[C@H](COP(=O)(O)OP(=O)(O)OP(O)(O)=S)[C@@H](O)[C@H]1O [ATPγS]
[7]
  X-ray crystallography, 3.85 A: ATPγS is found in both the N1 and N2 domains

B1: TrkH from Vibrio parahaemolyticus, wild type (natural protein, UniProt Q87TN7 1-485, looked up)
chain: T1 sequence (Q87TN7 1-485 partner)
notes: TrkH, Vibrio parahaemolyticus, full-length gene in a modified pET vector; TEV protease site followed by a 10-polyhistidine tag at the C terminus; printed residue numbers run to 485; Homodimer in all three structures; also called TrkH (wt)
[8]
  stoichiometry N: 2
